The target of this data set is Rep68 wt (Adeno-associated virus 2 (AAV2), UniProt P03132 1-536). Description: fluorescence anisotropy. (Polarisation of emitted light reports the rotation of a fluorescent probe.)
Chain of Rep68 wt (P03132 whole entry): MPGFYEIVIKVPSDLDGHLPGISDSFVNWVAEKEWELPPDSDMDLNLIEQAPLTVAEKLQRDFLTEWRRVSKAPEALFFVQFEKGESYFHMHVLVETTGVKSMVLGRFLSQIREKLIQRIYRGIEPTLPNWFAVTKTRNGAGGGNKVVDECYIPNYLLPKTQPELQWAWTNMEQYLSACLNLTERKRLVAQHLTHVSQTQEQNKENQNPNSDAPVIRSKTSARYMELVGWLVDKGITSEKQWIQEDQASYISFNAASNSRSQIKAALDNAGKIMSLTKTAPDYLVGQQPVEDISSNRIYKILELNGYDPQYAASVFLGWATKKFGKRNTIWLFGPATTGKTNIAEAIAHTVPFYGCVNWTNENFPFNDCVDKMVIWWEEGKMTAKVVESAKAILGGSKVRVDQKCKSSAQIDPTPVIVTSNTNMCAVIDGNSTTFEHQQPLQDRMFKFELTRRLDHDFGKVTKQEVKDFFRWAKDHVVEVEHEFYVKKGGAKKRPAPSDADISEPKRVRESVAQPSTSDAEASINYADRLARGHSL

B1: 41-mer AAVS1 RBS DNA (dsDNA)
DNA 1: TGGCGGCGGTTGGGGCTCGGCGCTCGCTCGCTCGCTGGGCG
DNA 2: CGCCCAGCGAGCGAGCGAGCGCCGAGCCCCAACCGCCGCCA
Turning to B1, the binding result is reported as “binds”.
